Results: ChEMBL document CHEMBL4229465, “SIRT4 is the last puzzle of mitochondrial sirtuins” (Bioorg Med Chem, 2018)
Values belong to the molecule of their own block, whether it stands above or below them. Where a SMILES comes first, the peptide text is derived from it. The star is where a group is joined. ξ: configuration not given here. Biotin = O=C1N[C@H]2[C@H](CS[C@H]2CCCCC(=O)*)N1; Lipoyl(6ξ) = O=C(CCCCC1CCSS1)*; X2 = CC(O)(CC(=O)O)CC(=O)*; X1 = CC(C)(CC(=O)*)C(=O)O

How the values were obtained:
[1] = target: T1, NAD-dependent protein lipoamidase sirtuin-4, mitochondrial (Homo sapiens) (UniProt Q9Y6E7); experiment: Ratio of Kcat to Km at recombinant SIRT4 (unknown origin)
T1 sequence (whole entry): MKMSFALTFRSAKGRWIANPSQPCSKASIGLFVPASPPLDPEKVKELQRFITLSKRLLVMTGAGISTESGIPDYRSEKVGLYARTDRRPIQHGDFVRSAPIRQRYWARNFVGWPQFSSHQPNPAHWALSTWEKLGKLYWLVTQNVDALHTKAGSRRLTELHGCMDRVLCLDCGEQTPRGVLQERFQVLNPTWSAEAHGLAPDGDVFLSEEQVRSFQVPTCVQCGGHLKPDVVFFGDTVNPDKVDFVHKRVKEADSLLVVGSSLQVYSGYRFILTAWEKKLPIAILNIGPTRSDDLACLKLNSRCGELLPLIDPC

[2] = target: T1, NAD-dependent protein lipoamidase sirtuin-4, mitochondrial (Homo sapiens); experiment: Ratio of Kcat to Km at human N-terminal His6-tagged SIRT4 (25 to 314 residues) expressed in Escherichia coli codon plus (DE3)
[3] = target: T2, NAD-dependent protein deacetylase sirtuin-2 (Homo sapiens) (UniProt Q8IXJ6); experiment: Ratio of Kcat to Km at human SIRT2 (36 to 356 residues) expressed in Escherichia coli rosetta cells
T2 sequence (whole entry): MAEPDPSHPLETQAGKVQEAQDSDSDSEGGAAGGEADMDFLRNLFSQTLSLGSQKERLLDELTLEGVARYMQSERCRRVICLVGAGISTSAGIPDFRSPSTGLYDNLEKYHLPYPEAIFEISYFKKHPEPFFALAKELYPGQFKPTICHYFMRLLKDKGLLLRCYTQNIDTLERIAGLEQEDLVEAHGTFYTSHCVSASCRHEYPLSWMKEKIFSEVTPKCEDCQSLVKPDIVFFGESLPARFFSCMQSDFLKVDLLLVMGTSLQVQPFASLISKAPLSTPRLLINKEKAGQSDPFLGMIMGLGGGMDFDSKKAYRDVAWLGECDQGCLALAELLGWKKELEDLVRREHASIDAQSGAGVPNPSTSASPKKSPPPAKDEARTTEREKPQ

[4] = substrate: CC(C)C[C@H](NC(=O)[C@@H](NC(=O)CN)C(C)C)C(=O)N[C@@H](CCCCNC(=O)CC(C)(O)CC(=O)O)C(=O)N[C@@H](CCC(=O)O)C(=O)N[C@@H](Cc1ccc(O)cc1)C(=O)NCC(=O)N[C@H](C(=O)O)C(C)C; experiment: (§1) Activity at human N-terminal His6-tagged SIRT4 (25 to 314 residues) expressed in Escherichia coli codon plus (DE3)
[5] = substrate: CC(=O)NCCCC[C@H](NC(=O)[C@H](CC(C)C)NC(=O)[C@@H](NC(=O)CN)C(C)C)C(=O)N[C@@H](CCC(=O)O)C(=O)N[C@@H](Cc1ccc(O)cc1)C(=O)NCC(=O)N[C@H](C(=O)O)C(C)C; experiment: as §1
[6] = substrate: CC(C)C[C@H](NC(=O)[C@@H](NC(=O)CN)C(C)C)C(=O)N[C@@H](CCCCNC(=O)CC(C)(C)C(=O)O)C(=O)N[C@@H](CCC(=O)O)C(=O)N[C@@H](Cc1ccc(O)cc1)C(=O)NCC(=O)N[C@H](C(=O)O)C(C)C; experiment: as §1
[7] = substrate: CC(C)C[C@H](NC(=O)[C@@H](NC(=O)CN)C(C)C)C(=O)N[C@@H](CCCCNC(=O)CCCCC1CCSS1)C(=O)N[C@@H](CCC(=O)O)C(=O)N[C@@H](Cc1ccc(O)cc1)C(=O)NCC(=O)N[C@H](C(=O)O)C(C)C; experiment: as §1
[8] = compound: C[C@H](NC(=O)[C@@H](NC(=O)[C@H](CCC(N)=O)NC(=O)[C@@H](N)CCCCN)[C@@H](C)O)C(=O)N[C@@H](CCCNC(=N)N)C(=O)N[C@@H](CCCCNC(=O)CCCC[C@@H]1SC[C@@H]2NC(=O)N[C@@H]21)C(=O)N[C@@H](CO)C(=O)N[C@H](C(=O)NCC(=O)NCC(=O)O)[C@@H](C)O; experiment: (§2) Activity at recombinant SIRT4 (unknown origin) in presence of NAD by LC-MS analysis; conditions: Homo sapiens
[9] = compound: CC[C@H](C)[C@H](NC(=O)[C@H](CC(N)=O)NC(=O)[C@H](CCCCNC(C)=O)NC(=O)[C@H](CO)NC(=O)CNC(=O)[C@H](CC(C)C)NC(=O)[C@H](Cc1ccc(O)cc1)NC(=O)[C@@H](N)CO)C(=O)N[C@@H](CCCCN)C(=O)N[C@@H](C)C(=O)N[C@@H](CO)C(=O)N[C@@H](CCC(=O)O)C(=O)O; experiment: as §2; conditions: Homo sapiens
[10] = compound: CC[C@H](C)[C@H](NC(=O)[C@@H](NC(=O)[C@H](C)NC(=O)[C@H](CCCCNC(C)=O)NC(=O)[C@H](CC(=O)O)NC(=O)[C@@H](NC(=O)[C@H](CCC(=O)O)NC(=O)[C@@H](NC(=O)[C@@H](N)CCC(=O)O)[C@@H](C)CC)[C@@H](C)O)[C@@H](C)O)C(=O)NCC(=O)O; experiment: as §2; conditions: Homo sapiens
[11] = compound: CC[C@H](C)[C@H](NC(=O)[C@@H](NC(=O)[C@H](C)NC(=O)[C@H](CCCCNC(=O)CCCCC1CCSS1)NC(=O)[C@H](CC(=O)O)NC(=O)[C@@H](NC(=O)[C@H](CCC(=O)O)NC(=O)[C@@H](NC(=O)[C@@H](N)CCC(=O)O)[C@@H](C)CC)[C@@H](C)O)[C@@H](C)O)C(=O)NCC(=O)O; experiment: as §2; conditions: Homo sapiens
[12] = compound: C[C@H](NC(=O)[C@@H](NC(=O)[C@H](CCC(N)=O)NC(=O)[C@@H](N)CCCCN)[C@@H](C)O)C(=O)N[C@@H](CCCNC(=N)N)C(=O)N[C@@H](CCCCNC(=O)CCCCC1CCSS1)C(=O)N[C@@H](CO)C(=O)N[C@H](C(=O)NCC(=O)NCC(=O)O)[C@@H](C)O; experiment: as §2; conditions: Homo sapiens
[13] = compound: CC(=O)NCCCC[C@H](NC(=O)[C@H](CCCNC(=N)N)NC(=O)[C@H](C)NC(=O)[C@@H](NC(=O)[C@H](CCC(N)=O)NC(=O)[C@@H](N)CCCCN)[C@@H](C)O)C(=O)N[C@@H](CO)C(=O)N[C@H](C(=O)NCC(=O)NCC(=O)O)[C@@H](C)O; experiment: as §2; conditions: Homo sapiens

Molecule: H-EIETDK(Ac)ATIG-OH
Ratio [1]: 0.2 s⁻¹ M⁻¹

Molecule: H-KQLATK(Ac)AARKS-OH
Ratio [3]: 3130 s⁻¹ M⁻¹

Molecule: CC(C)C[C@H](NC(=O)[C@@H](NC(=O)CN)C(C)C)C(=O)N[C@@H](CCCCNC(=O)CC(C)(C)C(=O)O)C(=O)N[C@@H](CCC(=O)O)C(=O)N[C@@H](Cc1ccc(O)cc1)C(=O)NCC(=O)N[C@H](C(=O)O)C(C)C (H-GVLK(X1)EYGV-OH)
Ratio [2]: 412 s⁻¹ M⁻¹

Molecule: H-SYLGSK(Ac)NIKASE-OH
Ratio [1]: 0.0064 s⁻¹ M⁻¹

Molecule: C[C@H](NC(=O)[C@@H](NC(=O)[C@H](CCC(N)=O)NC(=O)[C@@H](N)CCCCN)[C@@H](C)O)C(=O)N[C@@H](CCCNC(=N)N)C(=O)N[C@@H](CCCCNC(=O)CCCC[C@@H]1SC[C@@H]2NC(=O)N[C@@H]21)C(=O)N[C@@H](CO)C(=O)N[C@H](C(=O)NCC(=O)NCC(=O)O)[C@@H](C)O (H-KQTARK(Biotin)STGG-OH)
Ratio [1]: 0.74 s⁻¹ M⁻¹

Molecule: CC(C)C[C@H](NC(=O)[C@@H](NC(=O)CN)C(C)C)C(=O)N[C@@H](CCCCNC(=O)CC(C)(O)CC(=O)O)C(=O)N[C@@H](CCC(=O)O)C(=O)N[C@@H](Cc1ccc(O)cc1)C(=O)NCC(=O)N[C@H](C(=O)O)C(C)C (stereo partly drawn) (H-GVLK(X2)EYGV-OH)
Ratio [2]: 546 s⁻¹ M⁻¹

B1: NAD-dependent protein lipoamidase sirtuin-4, mitochondrial (Homo sapiens), Q9Y6E7 (protein)
chain: MKMSFALTFRSAKGRWIANPSQPCSKASIGLFVPASPPLDPEKVKELQRFITLSKRLLVMTGAGISTESGIPDYRSEKVGLYARTDRRPIQHGDFVRSAPIRQRYWARNFVGWPQFSSHQPNPAHWALSTWEKLGKLYWLVTQNVDALHTKAGSRRLTELHGCMDRVLCLDCGEQTPRGVLQERFQVLNPTWSAEAHGLAPDGDVFLSEEQVRSFQVPTCVQCGGHLKPDVVFFGDTVNPDKVDFVHKRVKEADSLLVVGSSLQVYSGYRFILTAWEKKLPIAILNIGPTRSDDLACLKLNSRCGELLPLIDPC
Km [4]: 9.7 µM
kcat [4]: 0.0053 s⁻¹
Km [5]: 2340 µM
kcat [5]: 0.0087 s⁻¹
Km [6]: 17.7 µM
kcat [6]: 0.0073 s⁻¹
Km [7]: 10.1 µM
kcat [7]: 0.0017 s⁻¹
Km [8]: 719 µM
kcat [8]: 0.0005 s⁻¹
Km [9]: > 2500 µM
Km [10]: > 2500 µM
Km [11]: 239 µM
kcat [11]: 0.0018 s⁻¹
Km [12]: 814 µM
kcat [12]: 0.0019 s⁻¹
Km [13]: > 2500 µM

More lines, now with the values ahead:

Ratio [2]: 3.7 s⁻¹ M⁻¹
Molecule: H-GVLK(Ac)EYGV-OH

Ratio [1]: 7.65 s⁻¹ M⁻¹
Molecule: CC[C@H](C)[C@H](NC(=O)[C@@H](NC(=O)[C@H](C)NC(=O)[C@H](CCCCNC(=O)CCCCC1CCSS1)NC(=O)[C@H](CC(=O)O)NC(=O)[C@@H](NC(=O)[C@H](CCC(=O)O)NC(=O)[C@@H](NC(=O)[C@@H](N)CCC(=O)O)[C@@H](C)CC)[C@@H](C)O)[C@@H](C)O)C(=O)NCC(=O)O (stereo partly drawn) (H-EIETDK(Lipoyl(6ξ))ATIG-OH)

Ratio [2]: 170 s⁻¹ M⁻¹
Molecule: CC(C)C[C@H](NC(=O)[C@@H](NC(=O)CN)C(C)C)C(=O)N[C@@H](CCCCNC(=O)CCCCC1CCSS1)C(=O)N[C@@H](CCC(=O)O)C(=O)N[C@@H](Cc1ccc(O)cc1)C(=O)NCC(=O)N[C@H](C(=O)O)C(C)C (stereo partly drawn) (H-GVLK(Lipoyl(6ξ))EYGV-OH)

Ratio [1]: 0.083 s⁻¹ M⁻¹
Molecule: H-KQTARK(Ac)STGG-OH

Ratio [1]: 2.3 s⁻¹ M⁻¹
Molecule: C[C@H](NC(=O)[C@@H](NC(=O)[C@H](CCC(N)=O)NC(=O)[C@@H](N)CCCCN)[C@@H](C)O)C(=O)N[C@@H](CCCNC(=N)N)C(=O)N[C@@H](CCCCNC(=O)CCCCC1CCSS1)C(=O)N[C@@H](CO)C(=O)N[C@H](C(=O)NCC(=O)NCC(=O)O)[C@@H](C)O (stereo partly drawn) (H-KQTARK(Lipoyl(6ξ))STGG-OH)
